Experimental data from PMC10349087 (Nature Communications, 2023).

How the values were obtained:
Test in all cases: BLI
Conditions in all cases: both partners purified
[1] = target: SARS-CoV-2 spike receptor-binding domain, Omicron BA.1 variant (amino acids 331-529), biotinylated (SARS-CoV-2, Omicron BA.1, G339D | S371L | S373P | S375F | K417N | N440K | G446S | S477N | T478K | E484A | …, biotin (RBD expression vector co-expressed with BirA-Flag, 100 μM biotin added))
[2] = target: SARS-CoV-2 spike receptor-binding domain, Delta variant (amino acids 331-529), biotinylated (SARS-CoV-2, Delta, L452R | T478K, biotin (RBD expression vector co-expressed with BirA-Flag, 100 μM biotin added))
[3] = target: SARS-CoV-2 spike receptor-binding domain, Omicron BA.2 variant (amino acids 331-529), biotinylated (SARS-CoV-2 Omicron BA.2, G504D | S371F | S375F | T376A | D405N | R408S | K417N | N440K | S477N | T478K | …, biotin (RBD expression vector co-expressed with BirA-Flag, 100 μM biotin added))

B1: NIV-10 Fab (Fab, V domains shown)
VH: EVQLVESGGGLVQPGGSLRLSCAASGFTFYSYWMTWVRQAPGKGLEWVANIKHDESESHYVDSVRGRFTISRDNAKNSVYLQMKGLRAEDTAVYYCARDGGYNILTAYYHAPSYWGQGTLVTVSS
VL: QSALTQPASVSGSPGQSITISCTGTSSDVGGYNFVSWYRQYPGKAPQLMIYDVSRRPSGDSDRFSGSKSGNTASLTISGLQAEDEAEYHCSSYTGRSPYVVFGGGTKVTVL
With B1 as the binder, how does the Kd [1] read?
Its Kd is 96.6 nM.

What about the koff [1] of the same binder?
Its koff is 0.0124 s⁻¹.

And the kon [1]?
The kon was 129000 M⁻¹ s⁻¹.

What about the Kd [2] of the same binder?
The Kd was 0.00371 nM.

What about the koff [2] of the same binder?
Its koff is 1.31e-06 s⁻¹.

And the kon [2]?
Its kon is 354000 M⁻¹ s⁻¹.

What about the Kd [3] of the same binder?
Its Kd is 76.1 nM.

And the koff [3]?
The koff was 0.0064 s⁻¹.

What about the kon [3] of the same binder?
The kon was 84100 M⁻¹ s⁻¹.

B2: NIV-11 Fab (Fab, V domains shown)
VH: QLVQSGPEVKKPGTSVKVSCKASGFTFYYSAVQWVRQARGQRLEWLGWMAVGSGKANYAQKFQERLTLTRDMSTSTAYMELSSLRSEDTAVYYCAAPNCTGGSCYDGFNLWGQGTVVTVSS
VL: EIVLTQSPGTLSLSPGDRAILSCRASQTVNSNYLAWYQQKPGQAPRLLIYGTSSRATGIPDRFSGSGSGTDFTLTISRLEPEDFAVYYCQQYGSSPWLFGQGTKVEIK
How did the Kd [1] turn out when B2 was run?
Its Kd is 9.14 nM.

And the koff [1]?
The koff was 0.00335 s⁻¹.

And the kon [1]?
Its kon is 366000 M⁻¹ s⁻¹.

And the Kd [2]?
The Kd was 0.00478 nM.

And the koff [2]?
Its koff is 5.08e-07 s⁻¹.

And the kon [2]?
Its kon is 106000 M⁻¹ s⁻¹.

What about the Kd [3] of the same binder?
The Kd was 11 nM.

What about the koff [3] of the same binder?
Its koff is 0.00355 s⁻¹.

And the kon [3]?
Its kon is 322000 M⁻¹ s⁻¹.

B3: NIV-8 Fab (Fab, V domains shown)
VH: EVQLVESGGGVVQPGRSLRLSCAASGFKFSKFAMHWVRQAPGKGPEWVAVISYDGNQYHSADSVKGRFTISRDNSFNTLYLQMNSLGPEDTAVYYCARDGPDTSGYYANIYFDFWGQGTLVTVSS
VL: QSVLTQPPSVSGAPGQRVTISCTGSSSNIGAGYDVHWYQQLPGRAPKLLIFDNNNRPSGVPDRFSGSKSGTSASLAITGLQTEDEAYYYCQSYDNSLILAVFGGGTKVTVL
B3 was tested. Which Kd [1] did it give?
The Kd was 24.7 nM.

And the koff [1]?
Its koff is 0.00312 s⁻¹.

And the kon [1]?
The kon was 126000 M⁻¹ s⁻¹.

What about the Kd [2] of the same binder?
The Kd was 0.00475 nM.

What about the koff [2] of the same binder?
The koff was 1.28e-06 s⁻¹.

And the kon [2]?
The kon was 269000 M⁻¹ s⁻¹.

And the Kd [3]?
Its Kd is 20 nM.

And the koff [3]?
Its koff is 0.00206 s⁻¹.

What about the kon [3] of the same binder?
The kon was 103000 M⁻¹ s⁻¹.

B4: NIV-13 Fab (Fab, V domains shown)
VH: EVQLLESGGGLVQPGGSLRLSCAASGFTFSRYALSWVRQAPGKGLEWVSAISGAAITTYYADSVKGRFTISRDDSRNTLFMQMDSLRAEDTAVYYCAKGDYYDSSGYLAEYFPHWGQGTLVTVSS
VL: SYELTQPPSVSVSPGQTARITCFADALPKQHAYWYQQKAGQAPVLVIFKDTERPSGIPKRFSGSRSGATVTLTISGVQAEDEADYYCQSTDISGVLFGGGTKLTVL
Which results are given for B4?
Kd [1]: 0.802 nM; koff [1]: 0.000248 s⁻¹; kon [1]: 309000 M⁻¹ s⁻¹; Kd [2]: 0.0919 nM; koff [2]: 3.72e-05 s⁻¹; kon [2]: 405000 M⁻¹ s⁻¹; Kd [3]: 1.49 nM; koff [3]: 0.000369 s⁻¹; kon [3]: 247000 M⁻¹ s⁻¹
